Reference: patent publication US20220380463A1 (Adimab, published 2022)

Key:
[1] = target: T1, human CD3 on CD3+ Jurkat cells (human, UniProt P07766 23-207); test: flow cytometry, 100 nM IgG on CD3+ Jurkat cells, pH 6.0
T1 construct: whole, on cells; Native CD3 complex on cells; the other CD3 chains are not specified for this assay; also called Human CD3+ Jurkat
Description: (§1) Specificity of the anti-CD3 antibodies for human CD3+ Jurkat cells compared to CHO-S cells at pH 6.0 and 7.4 was determined using a FACS cell binding assay. Briefly, CD3+ human Jurkat cells and CHO-S cells were thawed and washed with cold PBSF buffer, pH 7.4 (PBS+0.1% BSA, pH 7.4). About 200,000 cells were aliquoted per well of a 96-well plate and pelleted by centrifugation (5 minutes at 500×g). The cells were washed with either PBSF pH 7.4 or PBSF pH 6.0 (PBS+0.1% BSA, pH 6.0), and then resuspended in 100 ul in either PBSF pH 7.4 or PBSF pH 6.0 with IgG antibody produced in yeast (100 nM). The mixture (cells+antibody) was incubated for 20 minutes on ice, then washed twice with either PBSF pH 7.4 or PBSF pH 6.0. Cells were resuspended in 50 ul of propidium iodide (1:500 dilution) and anti-human IgG-RPE (1:100 dilution) prepared in either PBSF pH 7.4 or PBSF pH 6.0, then incubated for 20 minutes on ice in the dark before cells were washed twice with either PBSF pH 7.4 or PBSF pH 6.0. Binding was analyzed on FACS Canto II.
(§2) Cell binding assays. CD3+ human Jurkat cells (ATCC) and CHO-S cells (Invitrogen/ThermoFisher) were thawed and washed with cold PBSF buffer, pH 7.4 (PBS+0.1% BSA, pH 7.4). About 200,000 cells were aliquoted per well of a 96-well plate (FACS Assay Plate VWR BD 353263) and pelleted by centrifugation (5 minutes at 500×g). The cells were washed with either PBSF pH 7.4 or PBSF pH 6.0 (PBS+0.1% BSA, pH 6.0), and then resuspended in 100 ul in either PBSF pH 7.4 or PBSF pH 6.0 with IgG antibody (100 nM) produced in yeast as described above. The mixture (cells+antibody) was incubated for 20 minutes on ice, then washed twice with either PBSF pH 7.4 or PBSF pH 6.0. Cells were resuspended in 50 ul of propidium iodide (Roche; 1:500 dilution) and anti-human IgG-RPE (Southern Biotech; 1:100 dilution) prepared in either PBSF pH 7.4 or PBSF pH 6.0, then incubated for 20 minutes on ice in the dark before cells were washed twice with either PBSF pH 7.4 or PBSF pH 6.0. Binding was analyzed on FACS Canto II.

[2] = target: T1, human CD3 on CD3+ Jurkat cells; test: flow cytometry on CD3+ Jurkat cells, ratio of MFI at pH 6.0 to pH 7.4
Description: as §1, §2

[3] = target: T1, human CD3 on CD3+ Jurkat cells; test: flow cytometry, 100 nM IgG on CD3+ Jurkat cells, pH 7.4
Description: as §1, §2

T1 sequence (P07766 23-207): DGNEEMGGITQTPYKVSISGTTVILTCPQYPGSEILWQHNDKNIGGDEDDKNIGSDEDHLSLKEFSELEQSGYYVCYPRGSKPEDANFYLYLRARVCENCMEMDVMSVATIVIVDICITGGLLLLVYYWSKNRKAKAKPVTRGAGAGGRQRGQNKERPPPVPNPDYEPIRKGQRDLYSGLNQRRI

| Binder | MFI pH 6.0 [1] [MFI] | MFI pH 6.0/MFI pH 7.4 [2] | MFI pH 7.4 [3] [MFI] |
| --- | --- | --- | --- |
| SAD10318_P01_A02 (ADI-48581) (antibody, V domains shown, IgG; also called Ab237) VH: QVQLVQSGAEVKKPGASVKVSCKASGFNIKDYYMHWVRQAPGQRLEWMGWIDLENANTIYDAKFQGRVTITRDTSASTAYMELSSLRSEDTAVYYCARDAYHHYFYDVWGQGTLVTVSS VL: DIVMTQSPDSLAVSLGERATINCKSSQSLLNARTHKNHLAWYQQKPGQPPKLLIYWASTRESGVPDRFSGSGSGTDFTLTISSLQAEDVAVYYCKQSYHHRTFGGGTKVEIK | 1730 | 45.5 | 38 |
| SAD10318_P01_G03 (ADI-48590) (antibody, V domains shown, IgG; also called Ab91) VH: QVQLVQSGAEVKKPGASVKVSCKASGFNIKDYYMHWVRQAPGQRLEWMGWIDLENANTIYDAKFQGRVTITRDTSASTAYMELSSLRSEDTAVYYCAHDAYGHYFYDVWGQGTLVTVSS VL: DIVMTQSPDSLAVSLGERATINCKSSQSLLNAHTGHNYLAWYQQKPGQPPKLLIYWASTRESGVPDRFSGSGSGTDFTLTISSLQAEDVAVYYCKQSYHHRTFGGGTKVEIK | 1950 | 60.3 | 32 |
| SAD10318_P01_B02 (ADI-48582) (antibody, V domains shown, IgG; also called Ab248) VH: QVQLVQSGAEVKKPGASVKVSCKASGFNIKDYYMHWVRQAPGQRLEWMGWIDLENANTIYDAKFQGRVTITRDTSASTAYMELSSLRSEDTAVYYCARDHYHRYFYDVWGQGTLVTVSS VL: DIVMTQSPDSLAVSLGERATINCKSSQSLLNARTGHNHLAWYQQKPGQPPKLLIYWASTRESGVPDRFSGSGSGTDFTLTISSLQAEDVAVYYCKQSHSHRTFGGGTKVEIK | 326 | 9 | 36 |
| SAD10318_P01_C01 (ADI-48575) (antibody, V domains shown, IgG; also called Ab113) VH: QVQLVQSGAEVKKPGASVKVSCKASGFNIKDYYMHWVRQAPGQRLEWMGWIDLENANTIYDAKFQGRVTITRDTSASTAYMELSSLRSEDTAVYYCARDAYHRYHYDVWGQGTLVTVSS VL: DIVMTQSPDSLAVSLGERATINCKSSQSLLNAHTHKNYLAWYQQKPGQPPKLLIYWASTRESGVPDRFSGSGSGTDFTLTISSLQAEDVAVYYCKQSHSHRTFGGGTKVEIK | 3110 | 38.4 | 81 |
| SAD10318_P01_F03 (ADI-48589) (antibody, V domains shown, IgG; also called Ab80) VH: QVQLVQSGAEVKKPGASVKVSCKASGFNIKDYYMHWVRQAPGQRLEWMGWIDLENANTIYDAKFQGRVTITRDTSASTAYMELSSLRSEDTAVYYCARDAHGRYFYDHWGQGTLVTVSS VL: DIVMTQSPDSLAVSLGERATINCKSSQSLLNAHTGHNYLAWYQQKPGQPPKLLIYWASTRESGVPDRFSGSGSGTDFTLTISSLQAEDVAVYYCKQSYSHRTFGGGTKVEIK | 5240 | 11 | 475 |
| SAD10318_P01_F02 (ADI-48585) (antibody, V domains shown, IgG; also called Ab14) VH: QVQLVQSGAEVKKPGASVKVSCKASGFNIKDYYMHWVRQAPGQRLEWMGWIDLENANTIYDAKFQGRVTITRDTSASTAYMELSSLRSEDTAVYYCARDAHGHYFYDVWGQGTLVTVSS VL: DIVMTQSPDSLAVSLGERATINCKSSQSLLNAHTGKNHLAWYQQKPGQPPKLLIYWASTRESGVPDRFSGSGSGTDFTLTISSLQAEDVAVYYCKQSHSHRTFGGGTKVEIK | 381 | 8.5 | 45 |
| SAD10318_P01_E01 (ADI-48577) (antibody, V domains shown, IgG; also called Ab193) VH: QVQLVQSGAEVKKPGASVKVSCKASGFNIKDYYMHWVRQAPGQRLEWMGWIDLENANTIYDAKFQGRVTITRDTSASTAYMELSSLRSEDTAVYYCARDAHHRYFYDVWGQGTLVTVSS VL: DIVMTQSPDSLAVSLGERATINCKSSQSLLNAHEGKNYLAWYQQKPGQPPKLLIYWASTRESGVPDRFSGSGSGTDFTLTISSLQAEDVAVYYCKQSHSHRTFGGGTKVEIK | 5370 | 73.1 | 73 |
| SAD10318_P01_B01 (ADI-48574) (antibody, V domains shown, IgG; also called Ab2) VH: QVQLVQSGAEVKKPGASVKVSCKASGFNIKDYYMHWVRQAPGQRLEWMGWIDLENANTIYDAKFQGRVTITRDTSASTAYMELSSLRSEDTAVYYCARDAYGRYHYDHWGQGTLVTVSS VL: DIVMTQSPDSLAVSLGERATINCKSSQSLLNAHTGHNYLAWYQQKPGQPPKLLIYWASTRESGVPDRFSGSGSGTDFTLTISSLQAEDVAVYYCKQSYSRRTFGGGTKVEIK | 3550 | 23.7 | 150 |
| SAD10318_P01_G02 (ADI-48586) (antibody, V domains shown, IgG; also called Ab25) VH: QVQLVQSGAEVKKPGASVKVSCKASGFNIKDYYMHWVRQAPGQRLEWMGWIDLENANTIYDAKFQGRVTITRDTSASTAYMELSSLRSEDTAVYYCARDAYHHYFYDVWGQGTLVTVSS VL: DIVMTQSPDSLAVSLGERATINCKSSQSLLNARTGKNHLAWYQQKPGQPPKLLIYWASTRESGVPDRFSGSGSGTDFTLTISSLQAEDVAVYYCKQSYSHRTFGGGTKVEIK | 1090 | 24.3 | 45 |
| SAD10318_P01_D03 (ADI-48588) (antibody, V domains shown, IgG; also called Ab58) VH: QVQLVQSGAEVKKPGASVKVSCKASGFNIKDYYMHWVRQAPGQRLEWMGWIDLENANTIYDAKFQGRVTITRDTSASTAYMELSSLRSEDTAVYYCARDHYGHYFYDVWGQGTLVTVSS VL: DIVMTQSPDSLAVSLGERATINCKSSQSLLNAHTGHNYLAWYQQKPGQPPKLLIYWASTRESGVPDRFSGSGSGTDFTLTISSLQAEDVAVYYCKQSHSHRTFGGGTKVEIK | 4940 | 83.3 | 59 |
| SAD10318_P01_F01 (ADI-48578) (antibody, V domains shown, IgG; also called Ab204) VH: QVQLVQSGAEVKKPGASVKVSCKASGFNIKDYYMHWVRQAPGQRLEWMGWIDLENANTIYDAKFQGRVTITRDTSASTAYMELSSLRSEDTAVYYCARDAYGHYFYDHWGQGTLVTVSS VL: DIVMTQSPDSLAVSLGERATINCKSSQSLLNAHTGKNHLAWYQQKPGQPPKLLIYWASTRESGVPDRFSGSGSGTDFTLTISSLQAEDVAVYYCKQSYHHRTFGGGTKVEIK | 418 | 11.7 | 36 |
| SAD10318_P01_D02 (ADI-48584) (antibody, V domains shown, IgG; also called Ab3) VH: QVQLVQSGAEVKKPGASVKVSCKASGFNIKDYYMHWVRQAPGQRLEWMGWIDLENANTIYDAKFQGRVTITRDTSASTAYMELSSLRSEDTAVYYCARDAHHRYFYDVWGQGTLVTVSS VL: DIVMTQSPDSLAVSLGERATINCKSSQSLLNARTGKNHLAWYQQKPGQPPKLLIYWASTRESGVPDRFSGSGSGTDFTLTISSLQAEDVAVYYCKQSHSHRTFGGGTKVEIK | 2180 | 23.9 | 91 |
| SAD10318_P01_G01 (ADI-48579) (antibody, V domains shown, IgG; also called Ab215) VH: QVQLVQSGAEVKKPGASVKVSCKASGFNIKDYYMHWVRQAPGQRLEWMGWIDLENANTIYDAKFQGRVTITRDTSASTAYMELSSLRSEDTAVYYCARDAHGHYFYDVWGQGTLVTVSS VL: DIVMTQSPDSLAVSLGERATINCKSSQSLLHAHTGKNYLAWYQQKPGQPPKLLIYWASTRESGVPDRFSGSGSGTDFTLTISSLQAEDVAVYYCKQSHSHRTFGGGTKVEIK | 2070 | 6.8 | 306 |
| SAD10318_P01_D01 (ADI-48576) (antibody, V domains shown, IgG; also called Ab182) VH: QVQLVQSGAEVKKPGASVKVSCKASGFNIKDYYMHWVRQAPGQRLEWMGWIDLENANTIYDAKFQGRVTITRDTSASTAYMELSSLRSEDTAVYYCARDAYHRYFYDHWGQGTLVTVSS VL: DIVMTQSPDSLAVSLGERATINCKSSQSLLNAHTGKNHLAWYQQKPGQPPKLLIYWASTRESGVPDRFSGSGSGTDFTLTISSLQAEDVAVYYCKQSHSHRTFGGGTKVEIK | 849 | 20.1 | 42 |
| SAD10318_P01_A03 (ADI-48587) (antibody, V domains shown, IgG; also called Ab36) VH: QVQLVQSGAEVKKPGASVKVSCKASGFNIKDYYMHWVRQAPGQRLEWMGWIDLENANTIYDAKFQGRVTITRDTSASTAYMELSSLRSEDTAVYYCARDHYHRYFYDVWGQGTLVTVSS VL: DIVMTQSPDSLAVSLGERATINCKSSQSLLNARTGHNYLAWYQQKPGQPPKLLIYWASTRESGVPDRFSGSGSGTDFTLTISSLQAEDVAVYYCKQSHSHRTFGGGTKVEIK | 5120 | 77.1 | 66 |
